Measurements from article PMC12583548.

Experiments:
[1] = biological target: HAstV1 capsid spike domain mutant K467A, 10x histidine-tagged (human astrovirus 1 (HAstV1)) (UniProt O12792); experiment: SEC; Superdex 200 Increase 10/300 GL, HAstV1 spike mutants alone
[2] = biological target: HAstV1 capsid spike domain mutant K467A, 10x histidine-tagged (human astrovirus 1 (HAstV1)) (UniProt O12792); experiment: SEC; Superdex 200 Increase 10/300 GL; traces of the HAstV1 spike mutants overlayed with BioRad gel filtration standards
[3] = biological target: HAstV1 capsid spike domain mutant K467H, Avitag-biotinylated (human astrovirus 1 (HAstV1)) (UniProt O12792); experiment: as above
[4] = biological target: HAstV1 capsid spike domain mutant K514A, 10x histidine-tagged (human astrovirus 1 (HAstV1)) (UniProt O12792); experiment: SEC; Superdex 200 Increase 10/300 GL, HAstV1 spike mutants alone
[5] = biological target: HAstV1 capsid spike domain mutant K514A, 10x histidine-tagged (human astrovirus 1 (HAstV1)) (UniProt O12792); experiment: SEC; Superdex 200 Increase 10/300 GL; traces of the HAstV1 spike mutants overlayed with BioRad gel filtration standards
[6] = biological target: HAstV1 capsid spike domain mutant Y475A, 10x histidine-tagged (human astrovirus 1 (HAstV1)) (UniProt O12792); experiment: SEC; Superdex 200 Increase 10/300 GL, HAstV1 spike mutants alone
[7] = biological target: HAstV1 capsid spike domain mutant Y475A, 10x histidine-tagged (human astrovirus 1 (HAstV1)) (UniProt O12792); experiment: SEC; Superdex 200 Increase 10/300 GL; traces of the HAstV1 spike mutants overlayed with BioRad gel filtration standards
[8] = biological target: HAstV1 capsid spike domain triple mutant 3A (K467A, Y475A, K514A), 10x histidine-tagged (human astrovirus 1 (HAstV1)) (UniProt O12792); experiment: SEC; Superdex 200 Increase 10/300 GL, HAstV1 spike mutants alone
[9] = biological target: HAstV1 capsid spike domain triple mutant 3A (K467A, Y475A, K514A), 10x histidine-tagged (human astrovirus 1 (HAstV1)) (UniProt O12792); experiment: SEC; Superdex 200 Increase 10/300 GL; traces of the HAstV1 spike mutants overlayed with BioRad gel filtration standards
[10] = biological target: HAstV1 capsid spike domain, Avitag-biotinylated (human astrovirus 1 (HAstV1)) (UniProt O12792); experiment: BLI; streptavidin biosensor loaded with biotinylated HAstV1 spike; wild-type or mutant FcRn in solution (500-31.25 nM series; T149N_G151T_D153E at 2000 and 1000 nM); pH 7.0 (0.1 M sodium phosphate, 150 mM NaCl, 0.05% Tween-20), 25 °C; 1:1 model; triplicate
[11] = biological target: HAstV1 capsid spike domain mutant K467H, Avitag-biotinylated (human astrovirus 1 (HAstV1)) (UniProt O12792); experiment: BLI; streptavidin biosensors loaded with biotinylated HAstV1 K467H spike, dipped into FcRn (2000 nM); pH 7.0 (0.1 M sodium phosphate, 150 mM NaCl, 0.05% Tween-20), 25 °C; 1:1 model; average of three replicates
[12] = biological target: HAstV1 capsid spike domain mutant K467H, Avitag-biotinylated (human astrovirus 1 (HAstV1)) (UniProt O12792); experiment: BLI; streptavidin biosensors loaded with biotinylated HAstV1 K467H spike, dipped into FcRn (1000, 500, 250 nM); pH 5.0 (0.1 M sodium acetate, 150 mM NaCl, 0.05% Tween-20), 25 °C; 1:1 model; average of three replicates
[13] = biological target: HAstV1 capsid spike domain, Avitag-biotinylated (human astrovirus 1 (HAstV1)) (UniProt O12792); experiment: BLI; biosensors loaded with biotinylated HAstV1 spike (streptavidin, as in Fig. 1a); human or mouse FcRn in solution, 500, 250, 125, 62.5 nM; pH 7.0 (0.1 M sodium phosphate, 150 mM NaCl, 0.05% Tween-20), 25 °C; 1:1 model; average of three replicates
[14] = biological target: HAstV1 capsid spike domain mutant K514A, 10x histidine-tagged (human astrovirus 1 (HAstV1)) (UniProt O12792); experiment: BLI; HIS1K biosensors loaded with 10x histidine-tagged spike, FcRn in solution at 1000, 500, 250, 125 and 62.5 nM; pH 7.0 buffer, 25 °C; 1:1 model
[15] = biological target: HAstV2 capsid spike domain, 10x histidine-tagged (human astrovirus 2 (HAstV2)); experiment: as above
[16] = biological target: HAstV4 capsid spike domain, 10x histidine-tagged (human astrovirus 4 (HAstV4)); experiment: as above
[17] = biological target: HAstV5 capsid spike domain, 10x histidine-tagged (human astrovirus 5 (HAstV5)); experiment: as above
[18] = biological target: HAstV6 capsid spike domain, 10x histidine-tagged (human astrovirus 6 (HAstV6)); experiment: as above
[19] = biological target: HAstV1 capsid spike domain mutant K467A, 10x histidine-tagged (human astrovirus 1 (HAstV1)) (UniProt O12792); experiment: BLI; HIS1K biosensors loaded with histidine-tagged spike, FcRn in solution at a single concentration of 2000 nM, kinetics estimated from that one concentration; pH 7.0 buffer, 25 °C; 1:1 model
[20] = biological target: HAstV1 capsid spike domain mutant Y475A, 10x histidine-tagged (human astrovirus 1 (HAstV1)) (UniProt O12792); experiment: as above
[21] = biological target: HAstV3 capsid spike domain, 10x histidine-tagged (human astrovirus 3 (HAstV3)); experiment: as above
[22] = biological target: HAstV7 capsid spike domain, 10x histidine-tagged (human astrovirus 7 (HAstV7)); experiment: as above
[23] = biological target: HAstV1 capsid spike domain mutant K467H, Avitag-biotinylated (human astrovirus 1 (HAstV1)) (UniProt O12792); experiment: BLI; streptavidin biosensors loaded with Avitag-biotinylated spike, FcRn in solution (500-62.5 nM for the wild type); pH 7.0 (0.1 M sodium phosphate, 150 mM NaCl, 0.05% Tween-20), 25 °C; 1:1 model

HAstV1 capsid spike domain mutant K467A, 10x histidine-tagged (from UniProt O12792 433-645) (domain or fragment)
stoichiometry N [1]: 2 | stoichiometry N [2]: 2

HAstV1 capsid spike domain mutant K467H, Avitag-biotinylated (from UniProt O12792 433-645) (domain or fragment)
stoichiometry N [3]: 2

HAstV1 capsid spike domain mutant K514A, 10x histidine-tagged (from UniProt O12792 433-645) (domain or fragment)
stoichiometry N [4]: 2 | stoichiometry N [5]: 2

HAstV1 capsid spike domain mutant Y475A, 10x histidine-tagged (from UniProt O12792 433-645) (domain or fragment)
stoichiometry N [6]: 2 | stoichiometry N [7]: 2

HAstV1 capsid spike domain triple mutant 3 A (K467A, Y475A, K514A), 10x histidine-tagged (from UniProt O12792 433-645) (domain or fragment)
stoichiometry N [8]: 2

HAstV1 capsid spike domain triple mutant 3A (K467A, Y475A, K514A), 10x histidine-tagged (from UniProt O12792 433-645) (domain or fragment)
stoichiometry N [9]: 2

human FcRn mutant D153E (ectodomain heterodimer with β2 microglobulin) (from UniProt P55899 24-297; P61769 21-119) (receptor)
koff [10]: 0.14 s⁻¹ | kon [10]: 85000 M⁻¹ s⁻¹

human FcRn mutant T149N_G151T (ectodomain heterodimer with β2 microglobulin) (from UniProt P55899 24-297; P61769 21-119) (receptor)
koff [10]: 0.034 s⁻¹ | kon [10]: 74000 M⁻¹ s⁻¹

human FcRn mutant T149N_G151T_D153E (ectodomain heterodimer with β2 microglobulin) (from UniProt P55899 24-297; P61769 21-119) (receptor)
Kd [10]: 11.9 µM | koff [10]: 0.37 s⁻¹ | kon [10]: 31000 M⁻¹ s⁻¹

human neonatal Fc receptor (FcRn), wild-type ectodomain heterodimer of αFcRn and β2 microglobulin (from UniProt P55899 24-297; P61769 21-119)
koff [11]: 0.24 s⁻¹ | kon [11]: 11000 M⁻¹ s⁻¹ | koff [12]: 0.051 s⁻¹ | kon [12]: 66000 M⁻¹ s⁻¹ | koff [13]: 0.018 s⁻¹ | kon [13]: 94000 M⁻¹ s⁻¹ | koff [10]: 0.0223 s⁻¹ | kon [10]: 93000 M⁻¹ s⁻¹

neonatal Fc receptor (FcRn), recombinant human ectodomain heterodimer of FcRn α-chain and β2 microglobulin, with tags (from UniProt P55899;P61769)
Kd [14]: 2.5 µM | koff [14]: 0.056 s⁻¹ | koff [15]: 0.048 s⁻¹ | Kd [16]: 0.23 µM | Kd [17]: 0.152 µM | koff [17]: 0.006 s⁻¹ | koff [18]: 0.015 s⁻¹ | Kd [19]: 15 µM | koff [19]: 0.284 s⁻¹ | Kd [20]: 8 µM | koff [20]: 0.22 s⁻¹ | Kd [21]: 181 µM | koff [21]: 0.099 s⁻¹ | Kd [22]: 10.3 µM | koff [22]: 0.013 s⁻¹ | Kd [23]: 22.5 µM
